The text below walks through data of the Human Domainome abundance scans (Beltran et al. 2025).

± gives the uncertainty stated by the source.

First the molecules themselves.
B1: Pyruvate dehydrogenase protein X component, mitochondrial, residues 181 to 227; numbered along this chain, O00330 (parent)
chain: RFRLSPAARNILEKHSLDASQGTATGPRGIFTKEDALKLVQLKQTGK

The data set covers variants of B1. As to the kind of experiment: abundance fitness (aPCA) (normalised: wild type 0, dead -1); higher = more abundant; growth selection in yeast, the domain comes from the species named. Particulars: Homo sapiens.
On to RFRLSPAARNILEKHSLDASQGTAHGPRGIFTKEDALKLVQLKQTGK [T25H], for which the abundance fitness is -0.58 ± 0.15. With RFRLSPAARNILEKHSLDASQGTAVGPRGIFTKEDALKLVQLKQTGK [T25V] the figure was -0.476 ± 0.077; with RFRLSPAARNILEKHSLDASQGTAIGPRGIFTKEDALKLVQLKQTGK [T25I], -0.668 ± 0.13; with RFRLSPAARNILEKHSLDASQGTALGPRGIFTKEDALKLVQLKQTGK [T25L], -0.519 ± 0.048. On to RFRLSPAARNILEKHSLDASQGTADGPRGIFTKEDALKLVQLKQTGK [T25D], for which the abundance fitness was -0.582 ± 0.094.

For RFRLSPAARNILEKHSLDASQGTAEGPRGIFTKEDALKLVQLKQTGK [T25E], the abundance fitness is -0.765 ± 0.11. For the variant RFRLSPAARNILEKHSLDASQGTAWGPRGIFTKEDALKLVQLKQTGK [T25W], the abundance fitness was -1.06 ± 0.12. RFRLSPAARNILEKHSLDASQGTAPGPRGIFTKEDALKLVQLKQTGK [T25P]: the abundance fitness is -0.559 ± 0.064. With RFRLSPAARNILEKHSLDASQGTAAGPRGIFTKEDALKLVQLKQTGK [T25A] the figure was -0.566 ± 0.072. With RFRLSPAARNILEKHSLDASQGTATGPEGIFTKEDALKLVQLKQTGK [R28E] the figure was 0.06 ± 0.09. RFRLSPAARNILEKHSLDASQGTATGPCGIFTKEDALKLVQLKQTGK [R28C]: the abundance fitness was -0.072 ± 0.051.

On to RFRLSPAARNILEKHSLDASQGTATGPWGIFTKEDALKLVQLKQTGK [R28W], for which the abundance fitness was -0.255 ± 0.057. RFRLSPAARNILEKHSLDASQGTATGPPGIFTKEDALKLVQLKQTGK [R28P]: the abundance fitness is -0.408 ± 0.096. With RFRLSPAARNILEKHSLDASQGTATGPLGIFTKEDALKLVQLKQTGK [R28L] the figure was -0.161 ± 0.045.

As to RFRLSPAARNILEKHSLDASQGTATGPTGIFTKEDALKLVQLKQTGK [R28T], the abundance fitness was -0.281 ± 0.063. With RFRLSPAARNILEKHSLDASQGTATGPFGIFTKEDALKLVQLKQTGK [R28F] the figure was -0.085 ± 0.073. As for RFRLSPAARNILEKHSLDASQGTATGPDGIFTKEDALKLVQLKQTGK [R28D], the abundance fitness is 0.259 ± 0.1. With RFRLSPAARNILEKHSLDASQGTATGPYGIFTKEDALKLVQLKQTGK [R28Y] the figure was -0.03 ± 0.064.

Consider RFRLSPAARNILEKHSLDASQGTATGPSGIFTKEDALKLVQLKQTGK [R28S], for which the abundance fitness is -0.146 ± 0.072. With RFRLSPAARNILEKHSLDASQGTATGPVGIFTKEDALKLVQLKQTGK [R28V] the figure was -0.456 ± 0.068. With RFRLSPAARNILEKHSLDASQGTATGPIGIFTKEDALKLVQLKQTGK [R28I] the figure was -0.936 ± 0.15; with RFRLSPAARNILEKHSLDASQGTATGPQGIFTKEDALKLVQLKQTGK [R28Q], -0.314 ± 0.11. With RFRLSPAARNILEKHSLDASQGTATGPNGIFTKEDALKLVQLKQTGK [R28N], the abundance fitness worked out at 0.285 ± 0.088. With RFRLSPAARNILEKHSLDASQGTATGPKGIFTKEDALKLVQLKQTGK [R28K] the figure was 0.033 ± 0.071; with RFRLSPAARNILEKHSLDASQGTATGPMGIFTKEDALKLVQLKQTGK [R28M], -0.071 ± 0.072.

Consider RFRLSPAARNILEKHSLDASQGTATGPAGIFTKEDALKLVQLKQTGK [R28A], for which the abundance fitness is -0.119 ± 0.06. The figure for RFRLSPAARNILEKHSLDASQGTATGPHGIFTKEDALKLVQLKQTGK [R28H] is -0.202 ± 0.11; for RFRLSPAARNILEKHSLDASQGTATDPRGIFTKEDALKLVQLKQTGK [G26D] it is -0.444 ± 0.056. Turning to RFRLSPAARNILEKHSLDASQGTATEPRGIFTKEDALKLVQLKQTGK [G26E], the abundance fitness is -0.539 ± 0.085. The figure for RFRLSPAARNILEKHSLDASQGTATVPRGIFTKEDALKLVQLKQTGK [G26V] is -0.489 ± 0.043; for RFRLSPAARNILEKHSLDASQGTATMPRGIFTKEDALKLVQLKQTGK [G26M] it is -0.435 ± 0.069; for RFRLSPAARNILEKHSLDASQGTATNPRGIFTKEDALKLVQLKQTGK [G26N] it is -0.505 ± 0.096.

Turning to RFRLSPAARNILEKHSLDASQGTATFPRGIFTKEDALKLVQLKQTGK [G26F], the abundance fitness was -0.642 ± 0.081. Consider RFRLSPAARNILEKHSLDASQGTATAPRGIFTKEDALKLVQLKQTGK [G26A], for which the abundance fitness was -0.603 ± 0.056. For the variant RFRLSPAARNILEKHSLDASQGTATKPRGIFTKEDALKLVQLKQTGK [G26K], the abundance fitness is -0.571 ± 0.055.

Turning to RFRLSPAARNILEKHSLDASQGTATYPRGIFTKEDALKLVQLKQTGK [G26Y], the abundance fitness was -0.8 ± 0.17. In the case of RFRLSPAARNILEKHSLDASQGTATWPRGIFTKEDALKLVQLKQTGK [G26W], the abundance fitness was -0.874 ± 0.057. For the variant RFRLSPAARNILEKHSLDASQGTATSPRGIFTKEDALKLVQLKQTGK [G26S], the abundance fitness was -0.608 ± 0.068. On to RFRLSPAARNILEKHSLDASQGTATLPRGIFTKEDALKLVQLKQTGK [G26L], for which the abundance fitness is -0.516 ± 0.057. With RFRLSPAARNILEKHSLDASQGTATCPRGIFTKEDALKLVQLKQTGK [G26C] the figure was -0.903 ± 0.12; with RFRLSPAARNILEKHSLDASQGTATHPRGIFTKEDALKLVQLKQTGK [G26H], -0.46 ± 0.043. Turning to RFRLSPAARNILEKHSLDASQGTATQPRGIFTKEDALKLVQLKQTGK [G26Q], the abundance fitness was -0.483 ± 0.077. The figure for RFRLSPAARNILEKHSLDASQGTATPPRGIFTKEDALKLVQLKQTGK [G26P] is -0.55 ± 0.076; for RFRLSPAARNILEKHSLDASQGTATGPRGPFTKEDALKLVQLKQTGK [I30P] it is -0.363 ± 0.08; for RFRLSPAARNILEKHSLDASQGTATGPRGNFTKEDALKLVQLKQTGK [I30N] it is -0.268 ± 0.061.

In the case of RFRLSPAARNILEKHSLDASQGTATGPRGAFTKEDALKLVQLKQTGK [I30A], the abundance fitness was -0.105 ± 0.054. The figure for RFRLSPAARNILEKHSLDASQGTATGPRGHFTKEDALKLVQLKQTGK [I30H] is -0.359 ± 0.15. In the case of RFRLSPAARNILEKHSLDASQGTATGPRGCFTKEDALKLVQLKQTGK [I30C], the abundance fitness was -0.234 ± 0.075. The figure for RFRLSPAARNILEKHSLDASQGTATGPRGEFTKEDALKLVQLKQTGK [I30E] is 0.092 ± 0.083. As to RFRLSPAARNILEKHSLDASQGTATGPRGGFTKEDALKLVQLKQTGK [I30G], the abundance fitness is -0.271 ± 0.047. Turning to RFRLSPAARNILEKHSLDASQGTATGPRGFFTKEDALKLVQLKQTGK [I30F], the abundance fitness was -0.152 ± 0.05. As to RFRLSPAARNILEKHSLDASQGTATGPRGQFTKEDALKLVQLKQTGK [I30Q], the abundance fitness is -0.178 ± 0.072. The figure for RFRLSPAARNILEKHSLDASQGTATGPRGLFTKEDALKLVQLKQTGK [I30L] is 0.116 ± 0.04; for RFRLSPAARNILEKHSLDASQGTATGPRGMFTKEDALKLVQLKQTGK [I30M] it is 0.137 ± 0.099; for RFRLSPAARNILEKHSLDASQGTATGPRGDFTKEDALKLVQLKQTGK [I30D] it is -0.087 ± 0.066.
